Experimental findings from patent US20230118307A1, “THERAPEUTIC USE OF LONG-ACTING CONJUGATE OF TRIPLE AGONIST HAVING ACTIVITIES TO ALL OF GLUCAGON/GLP-1/GIP RECEPTORS FOR LUNG DISEASE” (HANMI PHARM. CO., LTD., priority 2020, published 2023) are described below.

Positions of bridges follow the written chain, without caps; N, C: chain ends. Non-standard residues stand in square brackets, D forms with d. No end group written: not given here. *: point of attachment. Acetyl(2-(4-imidazolyl)) = O=C(Cc1c[nH]cn1)*; Aib = CC(C)(N)C(=O)O Bounds are passed on as bounds.

One test concerns the target T1, human GIP receptor (human, UniProt P48546 22-466).
T1 sequence (looked up): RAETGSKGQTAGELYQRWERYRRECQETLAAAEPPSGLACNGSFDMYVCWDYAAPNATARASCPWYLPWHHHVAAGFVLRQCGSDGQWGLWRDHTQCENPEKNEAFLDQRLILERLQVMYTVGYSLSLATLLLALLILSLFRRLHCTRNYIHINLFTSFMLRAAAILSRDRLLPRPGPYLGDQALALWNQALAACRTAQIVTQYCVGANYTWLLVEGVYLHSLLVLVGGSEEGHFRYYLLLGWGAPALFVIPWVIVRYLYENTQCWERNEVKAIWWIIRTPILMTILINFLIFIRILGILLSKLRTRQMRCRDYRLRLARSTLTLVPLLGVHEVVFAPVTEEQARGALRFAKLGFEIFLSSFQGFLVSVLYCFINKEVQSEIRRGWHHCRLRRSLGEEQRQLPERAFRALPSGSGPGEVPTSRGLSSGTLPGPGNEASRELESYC
As to the kind of experiment: cell-based or functional assay.
For Y[Aib]QGTFTSDCSKYLDERAAKDFVQWLLDHHPSSGQPPPS (bridge 16-20) [triple agonist of SEQ ID NO: 72], the “In vitro Activity Compared to Native Peptide (%) vs. GIP” value stood at 1.6%.

In the case of H[Aib]QGTFTSDVSKYLDGQAAQEFVAWLLKGC [triple agonist of SEQ ID NO: 8], the “In vitro Activity Compared to Native Peptide (%) vs. GIP” value is less than 0.1%.

Consider H[Aib]EGTFTSDYSIAMDEIHQKDFVDWLLAEC (bridge 16-20) [triple agonist of SEQ ID NO: 54], for which the “In vitro Activity Compared to Native Peptide (%) vs. GIP” value was determined as 0.1%.

[Acetyl(2-(4-imidazolyl))][Aib]QGTFTSDYSKYLDECRAKEFVQWLLDHHPSSGQPPPS (bridge 16-20) [triple agonist of SEQ ID NO: 73]: the “In vitro Activity Compared to Native Peptide (%) vs. GIP” value is 3%.

Consider H[Aib]QGTFTSDYSKYLDEKRQKEFVQWLLNTKC (bridge 16-20) [triple agonist of SEQ ID NO: 58], for which the “In vitro Activity Compared to Native Peptide (%) vs. GIP” value worked out at 0.2%.

Take Y[Aib]QGTFTSDYSKCLDERAAKEFVQWLLDHHPSSGQPPPS (bridge 16-20) [triple agonist of SEQ ID NO: 69]: the “In vitro Activity Compared to Native Peptide (%) vs. GIP” value was determined as 62.8%.

As to {Acetyl(2-(4-imidazolyl))}-[Aib]QGTFTSDYSIAMDEKHCKDFVNWLLNTK (bridge 15-19) [triple agonist of SEQ ID NO: 60], the “In vitro Activity Compared to Native Peptide (%) vs. GIP” value came out at 8.2%.

In the case of H[Aib]QGTFTSDYSKYLDEKRQKEFVNWLLAQC (bridge 16-20) [triple agonist of SEQ ID NO: 56], the “In vitro Activity Compared to Native Peptide (%) vs. GIP” value was 0.8%.

Y[Aib]QGTFTSDYSKYLDECAAKEFVQWLLDHHPSSGQPPPS (bridge 16-20) [triple agonist of SEQ ID NO: 64]: the “In vitro Activity Compared to Native Peptide (%) vs. GIP” value was found to be 92.9%.

Take H[Aib]QGTFTSDYSKYLDEKRQKEFVQWLLDTC (bridge 16-20) [triple agonist of SEQ ID NO: 52]: the “In vitro Activity Compared to Native Peptide (%) vs. GIP” value was 0.3%.

For [Acetyl(2-(4-imidazolyl))][Aib]QGTFTSDYSKCLDEKRAKEFVQWLLDHHPSSGQPPPS (bridge 16-20) [triple agonist of SEQ ID NO: 74], the “In vitro Activity Compared to Native Peptide (%) vs. GIP” value came to 1%.

With Y[Aib]QGTFTSDYSKCLDEKAAKEFVQWLLDHHPSSGQPPPS (bridge 16-20) [triple agonist of SEQ ID NO: 68], the “In vitro Activity Compared to Native Peptide (%) vs. GIP” value amounted to 107%.

For the molecule H[Aib]QGTFTSDYSIAMDEIHQKDFVNWLLNTC (bridge 16-20) [triple agonist of SEQ ID NO: 57], the “In vitro Activity Compared to Native Peptide (%) vs. GIP” value turned out to be 0.3%.

The next test has as its target human GLP-1 receptor (human, UniProt P43220 24-463). As to the kind of experiment: cell-based or functional assay.
As to Y[Aib]QGTFTSDCSKYLDERAAKDFVQWLLDHHPSSGQPPPS (bridge 16-20) [triple agonist of SEQ ID NO: 72], the “In vitro Activity Compared to Native Peptide (%) vs. GLP-1” value is 11.5%.

For H[Aib]QGTFTSDVSKYLDGQAAQEFVAWLLKGC [triple agonist of SEQ ID NO: 8], the “In vitro Activity Compared to Native Peptide (%) vs. GLP-1” value is 14.2%.

As to H[Aib]EGTFTSDYSIAMDEIHQKDFVDWLLAEC (bridge 16-20) [triple agonist of SEQ ID NO: 54], the “In vitro Activity Compared to Native Peptide (%) vs. GLP-1” value was 30.6%.

In the case of [Acetyl(2-(4-imidazolyl))][Aib]QGTFTSDYSKYLDECRAKEFVQWLLDHHPSSGQPPPS (bridge 16-20) [triple agonist of SEQ ID NO: 73], the “In vitro Activity Compared to Native Peptide (%) vs. GLP-1” value came to 22.6%.

Turning to H[Aib]QGTFTSDYSKYLDEKRQKEFVQWLLNTKC (bridge 16-20) [triple agonist of SEQ ID NO: 58], the “In vitro Activity Compared to Native Peptide (%) vs. GLP-1” value stood at 39.1%.

For Y[Aib]QGTFTSDYSKCLDERAAKEFVQWLLDHHPSSGQPPPS (bridge 16-20) [triple agonist of SEQ ID NO: 69], the “In vitro Activity Compared to Native Peptide (%) vs. GLP-1” value amounted to 24.3%.

In the case of {Acetyl(2-(4-imidazolyl))}-[Aib]QGTFTSDYSIAMDEKHCKDFVNWLLNTK (bridge 15-19) [triple agonist of SEQ ID NO: 60], the “In vitro Activity Compared to Native Peptide (%) vs. GLP-1” value came out at 106%.

With H[Aib]QGTFTSDYSKYLDEKRQKEFVNWLLAQC (bridge 16-20) [triple agonist of SEQ ID NO: 56], the “In vitro Activity Compared to Native Peptide (%) vs. GLP-1” value was found to be 57.9%.

On to Y[Aib]QGTFTSDYSKYLDECAAKEFVQWLLDHHPSSGQPPPS (bridge 16-20) [triple agonist of SEQ ID NO: 64], for which the “In vitro Activity Compared to Native Peptide (%) vs. GLP-1” value came to 64.6%.

For H[Aib]QGTFTSDYSKYLDEKRQKEFVQWLLDTC (bridge 16-20) [triple agonist of SEQ ID NO: 52], the “In vitro Activity Compared to Native Peptide (%) vs. GLP-1” value turned out to be 44.1%.

For the molecule [Acetyl(2-(4-imidazolyl))][Aib]QGTFTSDYSKCLDEKRAKEFVQWLLDHHPSSGQPPPS (bridge 16-20) [triple agonist of SEQ ID NO: 74], the “In vitro Activity Compared to Native Peptide (%) vs. GLP-1” value was found to be 12.9%.

With Y[Aib]QGTFTSDYSKCLDEKAAKEFVQWLLDHHPSSGQPPPS (bridge 16-20) [triple agonist of SEQ ID NO: 68], the “In vitro Activity Compared to Native Peptide (%) vs. GLP-1” value came out at 27.9%.

As for H[Aib]QGTFTSDYSIAMDEIHQKDFVNWLLNTC (bridge 16-20) [triple agonist of SEQ ID NO: 57], the “In vitro Activity Compared to Native Peptide (%) vs. GLP-1” value stood at 11.7%.

For another test, the target named is human GCG receptor (human, UniProt P47871 26-477). In words: cell-based or functional assay.
Sequence of human GCG receptor (P47871 26-477): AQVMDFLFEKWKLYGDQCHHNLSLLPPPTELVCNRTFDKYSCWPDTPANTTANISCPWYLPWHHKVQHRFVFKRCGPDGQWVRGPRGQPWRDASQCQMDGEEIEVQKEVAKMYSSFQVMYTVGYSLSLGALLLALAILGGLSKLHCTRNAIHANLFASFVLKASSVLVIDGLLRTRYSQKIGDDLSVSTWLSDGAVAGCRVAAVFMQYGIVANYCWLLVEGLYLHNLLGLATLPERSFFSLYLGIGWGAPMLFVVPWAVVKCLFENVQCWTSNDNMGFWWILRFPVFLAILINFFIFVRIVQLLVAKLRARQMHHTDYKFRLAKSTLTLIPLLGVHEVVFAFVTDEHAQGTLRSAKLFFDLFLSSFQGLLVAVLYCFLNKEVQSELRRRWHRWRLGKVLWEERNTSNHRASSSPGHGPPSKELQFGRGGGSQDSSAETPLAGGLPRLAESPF
Y[Aib]QGTFTSDCSKYLDERAAKDFVQWLLDHHPSSGQPPPS (bridge 16-20) [triple agonist of SEQ ID NO: 72]: the “In vitro Activity Compared to Native Peptide (%) vs. Glucagon” value is 1%.

H[Aib]QGTFTSDVSKYLDGQAAQEFVAWLLKGC [triple agonist of SEQ ID NO: 8]: the “In vitro Activity Compared to Native Peptide (%) vs. Glucagon” value was found to be 0.1%.

For the molecule H[Aib]EGTFTSDYSIAMDEIHQKDFVDWLLAEC (bridge 16-20) [triple agonist of SEQ ID NO: 54], the “In vitro Activity Compared to Native Peptide (%) vs. Glucagon” value amounted to 1.4%.

Regarding [Acetyl(2-(4-imidazolyl))][Aib]QGTFTSDYSKYLDECRAKEFVQWLLDHHPSSGQPPPS (bridge 16-20) [triple agonist of SEQ ID NO: 73], the “In vitro Activity Compared to Native Peptide (%) vs. Glucagon” value is 5.4%.

As for H[Aib]QGTFTSDYSKYLDEKRQKEFVQWLLNTKC (bridge 16-20) [triple agonist of SEQ ID NO: 58], the “In vitro Activity Compared to Native Peptide (%) vs. Glucagon” value stood at 2.6%.

Y[Aib]QGTFTSDYSKCLDERAAKEFVQWLLDHHPSSGQPPPS (bridge 16-20) [triple agonist of SEQ ID NO: 69]: the “In vitro Activity Compared to Native Peptide (%) vs. Glucagon” value is 9.6%.

Consider {Acetyl(2-(4-imidazolyl))}-[Aib]QGTFTSDYSIAMDEKHCKDFVNWLLNTK (bridge 15-19) [triple agonist of SEQ ID NO: 60], for which the “In vitro Activity Compared to Native Peptide (%) vs. Glucagon” value was less than 0.1%.

On to H[Aib]QGTFTSDYSKYLDEKRQKEFVNWLLAQC (bridge 16-20) [triple agonist of SEQ ID NO: 56], for which the “In vitro Activity Compared to Native Peptide (%) vs. Glucagon” value is 4.9%.

With Y[Aib]QGTFTSDYSKYLDECAAKEFVQWLLDHHPSSGQPPPS (bridge 16-20) [triple agonist of SEQ ID NO: 64], the “In vitro Activity Compared to Native Peptide (%) vs. Glucagon” value worked out at 60.1%.

With H[Aib]QGTFTSDYSKYLDEKRQKEFVQWLLDTC (bridge 16-20) [triple agonist of SEQ ID NO: 52], the “In vitro Activity Compared to Native Peptide (%) vs. Glucagon” value amounted to 7.5%.

As to [Acetyl(2-(4-imidazolyl))][Aib]QGTFTSDYSKCLDEKRAKEFVQWLLDHHPSSGQPPPS (bridge 16-20) [triple agonist of SEQ ID NO: 74], the “In vitro Activity Compared to Native Peptide (%) vs. Glucagon” value was determined as 0.9%.

For the molecule Y[Aib]QGTFTSDYSKCLDEKAAKEFVQWLLDHHPSSGQPPPS (bridge 16-20) [triple agonist of SEQ ID NO: 68], the “In vitro Activity Compared to Native Peptide (%) vs. Glucagon” value turned out to be 8.8%.

H[Aib]QGTFTSDYSIAMDEIHQKDFVNWLLNTC (bridge 16-20) [triple agonist of SEQ ID NO: 57]: the “In vitro Activity Compared to Native Peptide (%) vs. Glucagon” value is less than 0.1%.
